Experimental data as given in the nanobody polyreactivity screen of Harvey et al. (2022).

Assay: yeast display, Sf9 membrane polyspecificity reagent, FACS + sequencing; frameworks hold sequencing errors
Method in brief: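 After 36–48 hours of galactose induction, yeast (Saccharomyces cerevisiae BJ5465) displaying a synthetic nanobody library were stained at 4 °C for 1 hour with 10% biotinylated, detergent-solubilized Sf9 membrane reagent. Streptavidin microbeads enriched the stained cells before FACS sorting into low and high (top ~1%) gates on anti-HA and streptavidin fluorescence. Each clone's polyreactivity label reflects its gate of origin.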

Sequence	polyreactivity (PSR sort gate)
QVQLVESGGGLVQAGGSLRLSCAASGFIFYRNTMGWSRQAPGKEREFVAAIRWRGGSTYYADSVKGRFTISRDNAKNTVYLQMNSLKPEDTAVYYCAADTRPGYSGFEYWGQGTQVTVSS	high polyreactivity
QVQLVESGGGLVQAGGSLRLSCAASGFIFYRNTMGWYRPAPGKEREFVAAIRWRGGSTYYADSVKGRFTISRDNAKNTVYVQMNSLKPEDTAGYYCAADTRPGYSGFEYWGQGTQVTVSS	high polyreactivity
QVQLVESGGGLVQAGGSLRLSCAASGFIFYRNTMGWYRQAPGKEREFVAAIRWRGGSTYYADSVKGRFTISRDNAKNTVYLQMNSLKPEDTAVYYCAADTRPGYSGFEYWGQGTQVTVSS	high polyreactivity
QVQLVESGGGLVQAGGSLRLSCAASGFIFYRYAMGRYRQAPGKERELVAAISWGGGSTTYYADSVKGRFTISRDNAKNTVYLQMNSLKPEDTAVYYCAAYIGKGYGSEYYYWGQGTQVTVSS	low polyreactivity
QVQLVESGGGLVQAGGSLRLSCAASGFIFYRYAMGWYRQAPGKEREFVAVISKSGGRTYYADSVKGRFTISRDNAKNTVYLQMNSLKPEDTAVYYCNRVYRPSRYDYWGQGTQVTVSS	high polyreactivity
QVQLVESGGGLVQAGGSLRLSCAASGFIFYRYAMGWYRQAPGKERELVAAISYSGGSTYYADSVKGRFTISRDNAKNTVYLQMNSLKPEDTAVYYCAAGSKYRYDYWGQGTQVTVSS	high polyreactivity
QVQLVESGGGLVQAGGSLRLSCAASGFIFYRYAMGWYRQAPGKERELVAAITGSGARTYYADSVKGRFTISRDNAKNTVYLQMNSLKPEDTAVYYCNARGYRGYDYWGQGTQVTVSS	high polyreactivity
QVQLVESGGGLVQAGGSLRLSCAASGFIFYRYAMGWYRQEPGKERELVASINYSGGRTYYADSVKGRFTISRDNAKNTVYLQMNSLKPEDTAVYYCNARYKSTYYYWGQGTQVTVSS	high polyreactivity
QVQLVESGGGLVQAGGSLRLSCAASGFIFYRYARGWYRQAPGKEREFVAAITRSAGGTYYADSVKGRFTISRDNAKNTVYLQMNSLKPEDTAVYYCAAVYRSGSRYYLGWYNYWGQGTQVTVSS	high polyreactivity
QVQLVESGGGLVQAGGSLRLSCAASGFIFYRYSMGWYRQAPGIERELVAAIRSSGGSTYYADSVKGRFSISRDNAKNTVYRHMNSLKPQDTAVYYCAKCFSSVLWNGIWPYDYWGQGTQVTVSS	low polyreactivity
QVQLVESGGGLVQAGGSLRLSCAASGFIFYSNAMGWYRQAPGKERELVAAISRGGGSTYYADSVKGRFTISRDNAKNTVYLQMNSLKPEDTAVYYCAKRRLSPQDDYWGQGTQVTVSS	high polyreactivity
QVQLVESGGGLVQAGGSLRLSCAASGFIFYSNAMGWYRQAPGKERELVAAISWDAGSTYYADSVKGRFTISRDNPKNTVYLQMNSLKPEDTAVYYCATDRIVGRYIYNYWGQGTQVTVSS	high polyreactivity
QVQLVESGGGLVQAGGSLRLSCAASGFIFYSYAMGWYRQAPGKERELVAAITSSGGNTYYADSVKGRFTISRDNAKNTGYLQMNSLKPEDTAVYYCNRDRKRGYPYQPYDYWGQGTQVTVSS	high polyreactivity
QVQLVESGGGLVQAGGSLRLSCAASGFIFYSYAMGWYRQAPGKERELVAAITYSGGSTYYADSVKGRFTISRDNAKNTVYLQMNSLKPEDTAVYYCADDYYHPGYIYEYWGQGTQVTVSS	low polyreactivity
QVQLVESGGGLVQAGGSLRLSCAASGFIFYSYAMRWYRQDPGQERELVAAISTSGGSSYYADSVKGRFTMSRDNAKNTVYLQMNSLKPEDTAVYYCATLSAFYPFAYDYWGQGTQVTVSS	high polyreactivity
QVQLVESGGGLVQAGGSLRLSCAASGFIFYSYVMGWSRQAPGKERELVAAISRSGGSTYYADSVKGRFTISRDNAKNTVYLQMNSLKPEDTAVYYCAVDGISGTSYGEGDEYWGQGTQVTVSS	high polyreactivity
QVQLVESGGGLVQAGGSLRLSCAASGFIFYTYAMGWYRQAPGKERELVAAISWRGGRTYYADSVKGRFTISRDNAKNTVYLQMNSLKPEDTAVYYCNAVTRSGEYDYWGQGTQVTVSS	high polyreactivity
QVQLVESGGGLVQAGGSLRLSCAASGFIFYTYVMGWYRQAPGKERELVAAISGTGGRTYYADSVKGRFTISRDNAKNTVYLQMNSLKPEDTAVYYCAAVSRYATGGGYWGQGTQVTVSS	high polyreactivity
QVQLVESGGGLVQAGGSLRLSCAASGFIFYWYVMGWYRQAPGKERELVAGISKNGTNTYYADSVKGRFTISRDNAKNTVYLQMNSLKPEDTAVYYCAARGYIRSRHYLEGYWGQGTQVTVSS	high polyreactivity
QVQLVESGGGLVQAGGSLRLSCAASGFIFYYNAMGWYRQAPGKERELVATITSGGSTNYADSVKGRFTISRDNAKNTVYLQMNSLKPEDTAVYYCAAGHSWVYGYDYWGQGTQVTVSS	low polyreactivity
QVQLVESGGGLVQAGGSLRLSCAASGFIFYYNARGWYRQAPGKERELVAGISWDGSTYYADSVKGRFTISRDNAKNTVYLQMNSLKPEDTAVYYCAAALLDDYFDLFIFGYWGQGTQVTVSS	low polyreactivity
QVQLVESGGGLVQAGGSLRLSCAASGFIFYYNTMGWYRQAPGKERELVASITWSGDTTYYADSVKGRFSISRDNAKNTVYLQMNSLIPEDTAVYYCAAVHYYPYRRYDYWGQGTQVTVSS	low polyreactivity

Sequence	polyreactivity (PSR sort gate)
QVQLVESGGGLVQAGGSLRLSCAASGFIFYYYAMGWYIQAPGKERELVAAIDWDGDRTYYADSVKGRFTISRDNAKNTVYLQMNSLKPEDTAVYYCAAEWPVNFDYWGQGTQVTVSS	low polyreactivity
QVQLVESGGGLVQAGGSLRLSCAASGFIFYYYAMGWYRPAPGKERELVAAISRTGGRTYYADSVKWRFTISRDNAKKTVYLQMNSLKPEDTAVYYCAADQGNRFDYWGQGTQVTVSS	high polyreactivity
QVQLVESGGGLVQAGGSLRLSCAASGFIFYYYAMGWYRQAPGKERELVAAINRRGGSTYYADSVKGRFTISRDNAKNTVYLQMNSLKPEDTAVYYCAATYDGTFDYWGQGTQVTVSS	high polyreactivity
QVQLVESGGGLVQAGGSLRLSCAASGFIFYYYAMGWYRQAPGKERELVASISSSGGRTYYADSVKGRFTISRDNAKNTVYLQMNSLKPEDTAVYYCAARGPYGYDLLYYWGQGTQVTVSS	high polyreactivity
QVQLVESGGGLVQAGGSLRLSCAASGFIIARNAMGWYRQAPGKERELVAAISASGGRTYYADSVKGRFTISRDNAKNTVYLQMNSLKPEDTAVYYCAARRDGRSGSYNYWGQGTQVTVSS	high polyreactivity
QVQLVESGGGLVQAGGSLRLSCAASGFIIDVYAMGWYRHAPGKERELVAAISRSGGSTYYADSVKGRFTISRDNAKNSVYLQMNSLKPEDTAVYYCNAPGVTRAYLVGYDYWGQGSQVTVSS	low polyreactivity
QVQLVESGGGLVQAGGSLRLSCAASGFIIGSNGMGWYRQAPGKERELVAAISKNGGTTYYADSVKGRVTISRDNANNTVYLLMNSLKPADTAVYYCAAYKAVPNYYYWGQGTQVTVSS	high polyreactivity
QVQLVESGGGLVQAGGSLRLSCAASGFIIIGYFMGWYRQAPGKERELVAAITSSGGSTYYADSVKGRFTISRDNAKNTVYLQMNSLKPEDTAVYYCAARLYNSIYWGYYSWGPGTQVTVSS	low polyreactivity
QVQLVESGGGLVQAGGSLRLSCAASGFIIKFYAMGWYRQAPGKERELVATITISSGTTYYADSVKGRFTISRDTAKNTVYLQMNSLKPEDTAVYYCAASTLPAWPYDGPAGPRYDYWGQGTQVTVSS	low polyreactivity
QVQLVESGGGLVQAGGSLRLSCAASGFIIQGNAMGRYRQAPGKERELVAAISSSVSTYYADSVKGRFTISRDNAKNTVYLQMNSLKPEDTAVYYCNAGFPLSLWLGDYWGQGTQVTVSS	low polyreactivity
QVQLVESGGGLVQAGGSLRLSCAASGFIIQYYAMGWYRQAPGKERELVAVISLSGGRTSYADSVKGRFTISRDNAKNTVYLQMNSLKPEDTAVYYCARRVWSASNDYWGQGTQVTVSS	high polyreactivity
QVQLVESGGGLVQAGGSLRLSCAASGFIIYFNAMGWYRQAPGKERELVAAISASGGRTYYADSVKGRFTISRDNAKNTVYLQMNSLKPEDTAVYYCAADIRGYDYWGQGTQVTVSS	high polyreactivity
QVQLVESGGGLVQAGGSLRLSCAASGFIIYRYAMGWYRQAPGKEREVVATISSRGGSTYYADSVKGRFTISRDNAKNTVYLQMNSLKPEDTAVYYCNVRTRVKTTQSYDRNNYYWGQGTQVTVSS	high polyreactivity
QVQLVESGGGLVQAGGSLRLSCAASGFIIYSYAMGWYRQAPGKERELVAVISSRGGTTYYADSVKGRFTISRDNAKNTVYLQMNSLKPEDTAVYYCARDDYGTLVKLYVRCFNYWGQGTQVTVSS	low polyreactivity
QVQLVESGGGLVQAGGSLRLSCAASGFILAGYAMGWSRQAPGKERELVAAINSRGTRTYYADSVKGRFTISRDNAKNTVYLQMNSLKPEDTAVYYCAVHVWGTYGSWEYYYWGQGTQVTVSS	high polyreactivity
QVQLVESGGGLVQAGGSLRLSCAASGFILAGYAMGWYRQAPGKERELVAAINSRGTRTYYADSVKGRFTISRDNAKNTVYLQMNSLKPEDTAVYYCAVHVWGTYGSWEYYYWGQGTQVTVSS	high polyreactivity
QVQLVESGGGLVQAGGSLRLSCAASGFILDNYAMGWYRQAPGKERELVAAISGSGGSTYYADSVKGRFTISRDNAKNTVYLQMNSLKPEDTAVYYCAAYSIHYGYDAYDYWGQGTQVTVSS	high polyreactivity
QVQLVESGGGLVQAGGSLRLSCAASGFILDWYTMGWYRHAPGKEREFVAAITSRGGDTYYADSVKGRFTISRDNAKNTVYLQMNSLTPEDTAVYYCNKGFKLWPRYGYDYWGQGTQVTVSS	low polyreactivity
QVQLVESGGGLVQAGGSLRLSCAASGFILDYNTMGWYRQAPGKERELVAAISSSGDTTYYADSVKGRFTISRDNAKNTVYLQMNSLKPEDTAVYYCDREYGDGYEYWGQGTQVTVSS	low polyreactivity
QVQLVESGGGLVQAGGSLRLSCAASGFILGANAMGWYRQAPGKERELVAAIRSSDGTTYYADSVKGRFTISRDNAKNTVYLQMNSLKPEDTAVYYCAADWRLLYEYWGQGTQVTVSS	high polyreactivity
QVQLVESGGGLVQAGGSLRLSCAASGFILKPNAMGWYRQAPGKERELVAAISWSSGSTYYADSVKGRFTISRDNAKNTVYLQMNRLKPEDTAVYYCAADYFVYPDDWYDYWGQGTQVTVSS	low polyreactivity
